Measurements published in patent US20230031262A1, “TREATMENT OF MILD TRAUMATIC BRAIN INJURY” (OXEIA BIOPHARMACEUTICALS, INC., priority 2019, published 2023).
Where no end group is shown, it is not given here. The star is where a group is joined. Octanoyl = CCCCCCCC(=O)*

Assays:
[1] = stability of reconstituted OXE-103 drug product on storage; assay type: physicochemical; conditions: reconstituted OXE-103 for SC administration 14 mg in 5 mL multi-use vials
Experimental: OXE-103 drug product, placebo, and diluent are stored refrigerated between 2° C. to 8° C. (35.6° F. to 46.4° F.). Reconstituted OXE-103 for SC administration 14 mg (in 5 mL multi-use vials) is stable for up to 14 days at 10° C. or for up to 3 days when stored at 25° C./1000 Lux. The reconstituted drug product (and placebo) is stored refrigerated at 2° C. to 8° C. (35.6° F. to 46.4° F.).

[2] = in vivo; cited from earlier work
[3] = in vivo; cited from earlier work; remark: listed apart in the source
[4] = in vivo; cited from earlier work; remark: listed apart in the source

For “ghrelin (GSS(Octanoyl)FLSPEHQRVQQRKESKKPPAKLQPR; UniProt Q9UBU3 24-51, looked up) [OXE-103]”, the “stable for up to (reconstituted, storage time)” value ([1]; at 10° C.) is listed as “up to 14 days”, the “stable for up to (reconstituted, storage time)” value ([1]; stored at 25° C./1000 Lux) is listed as “up to 3 days” and the serum half-life [2] is listed as “about 30 minutes”. The safety [3] was “quite safe” and the “adverse effects of long term use” value [4] was “increased appetite, weight gain, and adiposity”.
